Assay results from article PMC10786891, “Massively parallel profiling of RNA-targeting CRISPR-Cas13d”.

Biological target: T1, EsCas13d, nuclease-dead (Eubacterium siraeum, UniProt B0MS50, R295A;H300A;R849A;H854A)
T1 sequence: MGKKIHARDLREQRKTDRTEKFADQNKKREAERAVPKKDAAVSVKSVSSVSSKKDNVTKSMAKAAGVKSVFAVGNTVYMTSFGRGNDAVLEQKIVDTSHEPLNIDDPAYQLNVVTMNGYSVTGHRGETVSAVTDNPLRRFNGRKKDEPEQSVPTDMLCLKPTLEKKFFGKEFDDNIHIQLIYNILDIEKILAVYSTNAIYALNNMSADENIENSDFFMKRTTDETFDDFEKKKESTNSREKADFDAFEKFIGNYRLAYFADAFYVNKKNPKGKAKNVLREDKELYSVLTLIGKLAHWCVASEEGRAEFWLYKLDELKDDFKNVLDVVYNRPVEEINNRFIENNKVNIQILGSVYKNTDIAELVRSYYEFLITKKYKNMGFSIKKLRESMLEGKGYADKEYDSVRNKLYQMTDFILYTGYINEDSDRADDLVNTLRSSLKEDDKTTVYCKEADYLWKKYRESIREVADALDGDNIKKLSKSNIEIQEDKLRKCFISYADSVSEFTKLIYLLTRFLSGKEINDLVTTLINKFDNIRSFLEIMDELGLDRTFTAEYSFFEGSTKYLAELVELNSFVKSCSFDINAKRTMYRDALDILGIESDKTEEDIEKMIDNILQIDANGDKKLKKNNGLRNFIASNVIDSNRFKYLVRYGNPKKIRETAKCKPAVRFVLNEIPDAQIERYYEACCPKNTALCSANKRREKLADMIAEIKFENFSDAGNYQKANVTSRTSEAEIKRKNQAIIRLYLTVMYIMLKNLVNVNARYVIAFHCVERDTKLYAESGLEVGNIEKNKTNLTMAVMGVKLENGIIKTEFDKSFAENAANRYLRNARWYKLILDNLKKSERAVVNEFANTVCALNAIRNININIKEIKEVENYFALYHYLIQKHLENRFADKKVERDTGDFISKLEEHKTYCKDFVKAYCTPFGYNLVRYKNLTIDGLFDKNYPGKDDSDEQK
Assay: crRNA (strand 1, pre-loaded); Mg2+; 40 mM Tris-HCl pH 7.5, 150 mM NaCl, 6 mM MgCl2, 1 mM DTT, 0.1% Tween-20, 0.2 mg/ml BSA; 25 C; 10 min per concentration, then washed
Settings: tags: His6-TwinStrep-SUMO cleaved; N-terminal SNAP kept (SNAP-Surface 488); label: 3' end held by stalled T7 RNA polymerase

B1: target 1 insA 3' of 21,insA 3' of 7 (mixed)
RNA 1: CACCCGUGCAAAAAUGCAGGGGUCUAAAACUGAGCGGAUAACCUCUCUAUGG
RNA 2: GGGAAUGGAUCCACAUCUACGAAUUCGUACCAAUAGAGAGGUUAUCACGCUCACCGAGAUCGGAAGAGCACACGU
For B1, the Kd was 12.6 ± 0.8 nM.

B2: target 1 G13A,U19A (mixed)
RNA 1: CACCCGUGCAAAAAUGCAGGGGUCUAAAACUGAGCGGAUAACCUCUCUAUGG
RNA 2: GGGAAUGGAUCCACAUCUACGAAUUCGUACCAAAGAGAAGUUAUCCGCUCACCGAGAUCGGAAGAGCACACGU
In the case of B2, the Kd is reported as 38 ± 6 nM.

B3: target 1 insA 3' of 22,insC 3' of 3 (mixed)
RNA 1: CACCCGUGCAAAAAUGCAGGGGUCUAAAACUGAGCGGAUAACCUCUCUAUGG
RNA 2: GGGAAUGGAUCCACAUCUACGAAUUCGUACACAUAGAGAGGUUAUCCGCUCCACCGAGAUCGGAAGAGCACACGU
B3 gave a Kd of 16.1 ± 2.5 nM.

B4: target 1 insA 3' of 19,insA 3' of 10 (mixed)
RNA 1: CACCCGUGCAAAAAUGCAGGGGUCUAAAACUGAGCGGAUAACCUCUCUAUGG
RNA 2: GGGAAUGGAUCCACAUCUACGAAUUCGUACCAUAAGAGAGGUUAAUCCGCUCACCGAGAUCGGAAGAGCACACGU
B4 showed a Kd of 30.7 ± 1.4 nM.

B5: target 1 insU 3' of 5,insU 3' of 4 (mixed)
RNA 1: CACCCGUGCAAAAAUGCAGGGGUCUAAAACUGAGCGGAUAACCUCUCUAUGG
RNA 2: GGGAAUGGAUCCACAUCUACGAAUUCGUACCAUAGAGAGGUUAUCCGUCUUCACCGAGAUCGGAAGAGCACACGU
Work on B5 yielded a Kd of 17.8 ± 2.9 nM.

B6: target 1 C7U,G15C (mixed)
RNA 1: CACCCGUGCAAAAAUGCAGGGGUCUAAAACUGAGCGGAUAACCUCUCUAUGG
RNA 2: GGGAAUGGAUCCACAUCUACGAAUUCGUACCAUAGACAGGUUAUUCGCUCACCGAGAUCGGAAGAGCACACGU
For B6, the Kd was 48 ± 7 nM.

B7: target 1 G17U,C21U (mixed)
RNA 1: CACCCGUGCAAAAAUGCAGGGGUCUAAAACUGAGCGGAUAACCUCUCUAUGG
RNA 2: GGGAAUGGAUCCACAUCUACGAAUUCGUACUAUAUAGAGGUUAUCCGCUCACCGAGAUCGGAAGAGCACACGU
Work on B7 yielded a Kd of 12 ± 0.9 nM.

B8: target 1 insA 3' of 17,insG 3' of 16 (mixed)
RNA 1: CACCCGUGCAAAAAUGCAGGGGUCUAAAACUGAGCGGAUAACCUCUCUAUGG
RNA 2: GGGAAUGGAUCCACAUCUACGAAUUCGUACCAUAGAAGGAGGUUAUCCGCUCACCGAGAUCGGAAGAGCACACGU
Work on B8 yielded a Kd of 18.7 ± 1.5 nM.

B9: target 1 G13U,C22U (mixed)
RNA 1: CACCCGUGCAAAAAUGCAGGGGUCUAAAACUGAGCGGAUAACCUCUCUAUGG
RNA 2: GGGAAUGGAUCCACAUCUACGAAUUCGUAUCAUAGAGAUGUUAUCCGCUCACCGAGAUCGGAAGAGCACACGU
Work on B9 yielded a Kd of 82 ± 27 nM.

B10: target 1 insC 3' of 9,insU 3' of 9 (mixed)
RNA 1: CACCCGUGCAAAAAUGCAGGGGUCUAAAACUGAGCGGAUAACCUCUCUAUGG
RNA 2: GGGAAUGGAUCCACAUCUACGAAUUCGUACCAUAGAGAGGUUACUUCCGCUCACCGAGAUCGGAAGAGCACACGU
Binder B10 has a Kd of 7.9 ± 0.9 nM.

B11: target 1 insG 3' of 9,insA 3' of 3 (mixed)
RNA 1: CACCCGUGCAAAAAUGCAGGGGUCUAAAACUGAGCGGAUAACCUCUCUAUGG
RNA 2: GGGAAUGGAUCCACAUCUACGAAUUCGUACCAUAGAGAGGUUAGUCCGCUACACCGAGAUCGGAAGAGCACACGU
In the case of B11, the Kd is reported as 10.3 ± 0.8 nM.

B12: target 1 insC 3' of 15,insA 3' of 12 (mixed)
RNA 1: CACCCGUGCAAAAAUGCAGGGGUCUAAAACUGAGCGGAUAACCUCUCUAUGG
RNA 2: GGGAAUGGAUCCACAUCUACGAAUUCGUACCAUAGAGCAGGAUUAUCCGCUCACCGAGAUCGGAAGAGCACACGU
Work on B12 yielded a Kd of 77 ± 24 nM.

B13: target 1 insG 3' of 18,insA 3' of 17 (mixed)
RNA 1: CACCCGUGCAAAAAUGCAGGGGUCUAAAACUGAGCGGAUAACCUCUCUAUGG
RNA 2: GGGAAUGGAUCCACAUCUACGAAUUCGUACCAUAGGAAGAGGUUAUCCGCUCACCGAGAUCGGAAGAGCACACGU
B13 showed a Kd of 53 ± 8 nM.
